From US20260209293A1 (Novo Nordisk, published 2026)
*1 amine or outer side, *2 acyl side, *3 side chain or, on linkers, in order; H or OH if unused. The star is where a group is joined. C20 diacid = O=C(O)CCCCCCCCCCCCCCCCCCC(=O)*; C18 diacid = O=C(O)CCCCCCCCCCCCCCCCC(=O)*; γGlu = O=C(O)[C@H](CCC(=O)[*:2])N[*:1]

T1: human amylin-3(a) receptor (human, UniProt P30988 25-474; O60896 24-148)
T1 sequence (looked up) 1: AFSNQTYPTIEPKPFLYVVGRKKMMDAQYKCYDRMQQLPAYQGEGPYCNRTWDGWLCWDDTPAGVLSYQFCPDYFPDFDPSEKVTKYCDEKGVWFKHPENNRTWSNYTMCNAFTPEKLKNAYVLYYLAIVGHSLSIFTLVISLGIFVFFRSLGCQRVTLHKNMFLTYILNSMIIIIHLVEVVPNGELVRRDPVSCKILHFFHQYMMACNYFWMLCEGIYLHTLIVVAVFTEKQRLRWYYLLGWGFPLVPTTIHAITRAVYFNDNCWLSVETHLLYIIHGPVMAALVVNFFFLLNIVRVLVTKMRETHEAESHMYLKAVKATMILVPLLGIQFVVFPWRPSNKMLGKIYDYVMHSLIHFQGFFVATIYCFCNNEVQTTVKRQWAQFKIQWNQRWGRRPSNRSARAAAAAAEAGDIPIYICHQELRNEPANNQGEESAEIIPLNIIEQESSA
T1 sequence (looked up) 2: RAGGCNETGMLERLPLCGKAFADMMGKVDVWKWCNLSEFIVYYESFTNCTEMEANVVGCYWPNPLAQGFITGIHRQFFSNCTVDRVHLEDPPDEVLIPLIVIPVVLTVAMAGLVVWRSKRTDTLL

T2: human calcitonin receptor (a) (human, UniProt P30988 25-474)
T2 sequence (looked up): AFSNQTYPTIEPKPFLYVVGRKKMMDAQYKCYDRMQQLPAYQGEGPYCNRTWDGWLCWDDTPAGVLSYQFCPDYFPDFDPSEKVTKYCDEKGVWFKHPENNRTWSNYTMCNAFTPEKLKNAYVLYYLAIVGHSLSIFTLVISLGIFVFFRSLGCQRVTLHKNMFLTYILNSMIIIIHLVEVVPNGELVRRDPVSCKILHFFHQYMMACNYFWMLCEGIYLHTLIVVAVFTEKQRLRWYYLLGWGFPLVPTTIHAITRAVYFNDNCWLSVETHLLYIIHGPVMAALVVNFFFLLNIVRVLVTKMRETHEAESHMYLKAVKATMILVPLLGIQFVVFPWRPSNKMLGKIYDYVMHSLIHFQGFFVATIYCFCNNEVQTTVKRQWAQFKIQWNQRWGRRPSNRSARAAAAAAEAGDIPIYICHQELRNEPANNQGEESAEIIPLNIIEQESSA


Tests used:
[1] = target: T1, human amylin-3(a) receptor; experiment: cell-based or functional assay
[2] = target: T2, human calcitonin receptor (a); experiment: cell-based or functional assay

| Binder | hAmyR3 potency, EC50 (pM); CRE-luciferase reporter in BHK cells [1] [pM] | hCalcR potency, EC50 (pM); CRE-luciferase reporter in BHK cells [2] [pM] |
| --- | --- | --- |
| {C20 diacid-γGlu}-AGHLSTAQTQRLAEFLHHSSDPFGAIPSSTDVGPDTP-NH2 (SMILES CC[C@H](C)[C@H](NC(=O)[C@H](C)NC(=O)CNC(=O)[C@H](Cc1ccccc1)NC(=O)[C@@H]1CCCN1C(=O)[C@H](CC(=O)O)NC(=O)[C@H](CO)NC(=O)[C@H](CO)NC(=O)[C@H](Cc1c[nH]cn1)NC(=O)[C@H](Cc1c[nH]cn1)NC(=O)[C@H](CC(C)C)NC(=O)[C@H](Cc1ccccc1)NC(=O)[C@H](CCC(=O)O)NC(=O)[C@H](C)NC(=O)[C@H](CC(C)C)NC(=O)[C@H](CCCNC(=N)N)NC(=O)[C@H](CCC(N)=O)NC(=O)[C@@H](NC(=O)[C@H](CCC(N)=O)NC(=O)[C@H](C)NC(=O)[C@@H](NC(=O)[C@H](CO)NC(=O)[C@H](CC(C)C)NC(=O)[C@H](Cc1c[nH]cn1)NC(=O)CNC(=O)[C@H](C)NC(=O)CC[C@H](NC(=O)CCCCCCCCCCCCCCCCCCC(=O)O)C(=O)O)[C@@H](C)O)[C@@H](C)O)C(=O)N1CCC[C@H]1C(=O)N[C@@H](CO)C(=O)N[C@@H](CO)C(=O)N[C@H](C(=O)N[C@@H](CC(=O)O)C(=O)N[C@H](C(=O)NCC(=O)N1CCC[C@H]1C(=O)N[C@@H](CC(=O)O)C(=O)N[C@H](C(=O)N1CCC[C@H]1C(N)=O)[C@@H](C)O)C(C)C)[C@@H](C)O) | 1.68 | 1.81 |
| {C18 diacid-γGlu}-AGSLSTAQTQRLAEFLHHSSDPFGAIPSSTDVGPDTP-NH2 (SMILES CC[C@H](C)[C@H](NC(=O)[C@H](C)NC(=O)CNC(=O)[C@H](Cc1ccccc1)NC(=O)[C@@H]1CCCN1C(=O)[C@H](CC(=O)O)NC(=O)[C@H](CO)NC(=O)[C@H](CO)NC(=O)[C@H](Cc1c[nH]cn1)NC(=O)[C@H](Cc1c[nH]cn1)NC(=O)[C@H](CC(C)C)NC(=O)[C@H](Cc1ccccc1)NC(=O)[C@H](CCC(=O)O)NC(=O)[C@H](C)NC(=O)[C@H](CC(C)C)NC(=O)[C@H](CCCNC(=N)N)NC(=O)[C@H](CCC(N)=O)NC(=O)[C@@H](NC(=O)[C@H](CCC(N)=O)NC(=O)[C@H](C)NC(=O)[C@@H](NC(=O)[C@H](CO)NC(=O)[C@H](CC(C)C)NC(=O)[C@H](CO)NC(=O)CNC(=O)[C@H](C)NC(=O)CC[C@H](NC(=O)CCCCCCCCCCCCCCCCC(=O)O)C(=O)O)[C@@H](C)O)[C@@H](C)O)C(=O)N1CCC[C@H]1C(=O)N[C@@H](CO)C(=O)N[C@@H](CO)C(=O)N[C@H](C(=O)N[C@@H](CC(=O)O)C(=O)N[C@H](C(=O)NCC(=O)N1CCC[C@H]1C(=O)N[C@@H](CC(=O)O)C(=O)N[C@H](C(=O)N1CCC[C@H]1C(N)=O)[C@@H](C)O)C(C)C)[C@@H](C)O) | 1.44 | 1.49 |
| {C20 diacid-γGlu}-ASHLSTAQTQRLAEFLHHSSDPFGAIPSSTDVGPDTP-NH2 (SMILES CC[C@H](C)[C@H](NC(=O)[C@H](C)NC(=O)CNC(=O)[C@H](Cc1ccccc1)NC(=O)[C@@H]1CCCN1C(=O)[C@H](CC(=O)O)NC(=O)[C@H](CO)NC(=O)[C@H](CO)NC(=O)[C@H](Cc1c[nH]cn1)NC(=O)[C@H](Cc1c[nH]cn1)NC(=O)[C@H](CC(C)C)NC(=O)[C@H](Cc1ccccc1)NC(=O)[C@H](CCC(=O)O)NC(=O)[C@H](C)NC(=O)[C@H](CC(C)C)NC(=O)[C@H](CCCNC(=N)N)NC(=O)[C@H](CCC(N)=O)NC(=O)[C@@H](NC(=O)[C@H](CCC(N)=O)NC(=O)[C@H](C)NC(=O)[C@@H](NC(=O)[C@H](CO)NC(=O)[C@H](CC(C)C)NC(=O)[C@H](Cc1c[nH]cn1)NC(=O)[C@H](CO)NC(=O)[C@H](C)NC(=O)CC[C@H](NC(=O)CCCCCCCCCCCCCCCCCCC(=O)O)C(=O)O)[C@@H](C)O)[C@@H](C)O)C(=O)N1CCC[C@H]1C(=O)N[C@@H](CO)C(=O)N[C@@H](CO)C(=O)N[C@H](C(=O)N[C@@H](CC(=O)O)C(=O)N[C@H](C(=O)NCC(=O)N1CCC[C@H]1C(=O)N[C@@H](CC(=O)O)C(=O)N[C@H](C(=O)N1CCC[C@H]1C(N)=O)[C@@H](C)O)C(C)C)[C@@H](C)O) | 0.86 | 1.25 |
| {C18 diacid-γGlu}-ASHLSTAQTQRLAEFLHHSSDPFGAIPSSTDVGPDTP-NH2 (SMILES CC[C@H](C)[C@H](NC(=O)[C@H](C)NC(=O)CNC(=O)[C@H](Cc1ccccc1)NC(=O)[C@@H]1CCCN1C(=O)[C@H](CC(=O)O)NC(=O)[C@H](CO)NC(=O)[C@H](CO)NC(=O)[C@H](Cc1c[nH]cn1)NC(=O)[C@H](Cc1c[nH]cn1)NC(=O)[C@H](CC(C)C)NC(=O)[C@H](Cc1ccccc1)NC(=O)[C@H](CCC(=O)O)NC(=O)[C@H](C)NC(=O)[C@H](CC(C)C)NC(=O)[C@H](CCCNC(=N)N)NC(=O)[C@H](CCC(N)=O)NC(=O)[C@@H](NC(=O)[C@H](CCC(N)=O)NC(=O)[C@H](C)NC(=O)[C@@H](NC(=O)[C@H](CO)NC(=O)[C@H](CC(C)C)NC(=O)[C@H](Cc1c[nH]cn1)NC(=O)[C@H](CO)NC(=O)[C@H](C)NC(=O)CC[C@H](NC(=O)CCCCCCCCCCCCCCCCC(=O)O)C(=O)O)[C@@H](C)O)[C@@H](C)O)C(=O)N1CCC[C@H]1C(=O)N[C@@H](CO)C(=O)N[C@@H](CO)C(=O)N[C@H](C(=O)N[C@@H](CC(=O)O)C(=O)N[C@H](C(=O)NCC(=O)N1CCC[C@H]1C(=O)N[C@@H](CC(=O)O)C(=O)N[C@H](C(=O)N1CCC[C@H]1C(N)=O)[C@@H](C)O)C(C)C)[C@@H](C)O) | 1.5 | 1.44 |
| {C18 diacid-γGlu-γGlu}-ASHLSTAQTQRLAEFLHHSSDPFGAIPSSTDVGPDTP-NH2 (SMILES CC[C@H](C)[C@H](NC(=O)[C@H](C)NC(=O)CNC(=O)[C@H](Cc1ccccc1)NC(=O)[C@@H]1CCCN1C(=O)[C@H](CC(=O)O)NC(=O)[C@H](CO)NC(=O)[C@H](CO)NC(=O)[C@H](Cc1c[nH]cn1)NC(=O)[C@H](Cc1c[nH]cn1)NC(=O)[C@H](CC(C)C)NC(=O)[C@H](Cc1ccccc1)NC(=O)[C@H](CCC(=O)O)NC(=O)[C@H](C)NC(=O)[C@H](CC(C)C)NC(=O)[C@H](CCCNC(=N)N)NC(=O)[C@H](CCC(N)=O)NC(=O)[C@@H](NC(=O)[C@H](CCC(N)=O)NC(=O)[C@H](C)NC(=O)[C@@H](NC(=O)[C@H](CO)NC(=O)[C@H](CC(C)C)NC(=O)[C@H](Cc1c[nH]cn1)NC(=O)[C@H](CO)NC(=O)[C@H](C)NC(=O)CC[C@H](NC(=O)CC[C@H](NC(=O)CCCCCCCCCCCCCCCCC(=O)O)C(=O)O)C(=O)O)[C@@H](C)O)[C@@H](C)O)C(=O)N1CCC[C@H]1C(=O)N[C@@H](CO)C(=O)N[C@@H](CO)C(=O)N[C@H](C(=O)N[C@@H](CC(=O)O)C(=O)N[C@H](C(=O)NCC(=O)N1CCC[C@H]1C(=O)N[C@@H](CC(=O)O)C(=O)N[C@H](C(=O)N1CCC[C@H]1C(N)=O)[C@@H](C)O)C(C)C)[C@@H](C)O) | 2.18 | 1.68 |
| {C20 diacid-γGlu}-ASHLSTAQTARLAEFLHHSSDNFGPILPPTDVGSNTP-NH2 (SMILES CC[C@H](C)[C@H](NC(=O)[C@@H]1CCCN1C(=O)CNC(=O)[C@H](Cc1ccccc1)NC(=O)[C@H](CC(N)=O)NC(=O)[C@H](CC(=O)O)NC(=O)[C@H](CO)NC(=O)[C@H](CO)NC(=O)[C@H](Cc1c[nH]cn1)NC(=O)[C@H](Cc1c[nH]cn1)NC(=O)[C@H](CC(C)C)NC(=O)[C@H](Cc1ccccc1)NC(=O)[C@H](CCC(=O)O)NC(=O)[C@H](C)NC(=O)[C@H](CC(C)C)NC(=O)[C@H](CCCNC(=N)N)NC(=O)[C@H](C)NC(=O)[C@@H](NC(=O)[C@H](CCC(N)=O)NC(=O)[C@H](C)NC(=O)[C@@H](NC(=O)[C@H](CO)NC(=O)[C@H](CC(C)C)NC(=O)[C@H](Cc1c[nH]cn1)NC(=O)[C@H](CO)NC(=O)[C@H](C)NC(=O)CC[C@H](NC(=O)CCCCCCCCCCCCCCCCCCC(=O)O)C(=O)O)[C@@H](C)O)[C@@H](C)O)C(=O)N[C@@H](CC(C)C)C(=O)N1CCC[C@H]1C(=O)N1CCC[C@H]1C(=O)N[C@H](C(=O)N[C@@H](CC(=O)O)C(=O)N[C@H](C(=O)NCC(=O)N[C@@H](CO)C(=O)N[C@@H](CC(N)=O)C(=O)N[C@H](C(=O)N1CCC[C@H]1C(N)=O)[C@@H](C)O)C(C)C)[C@@H](C)O) | 0.77 | 1.31 |
